Laboratory results published in patent publication US20220235344A1, “TRYPSIN VARIANTS WITH IMPROVED ENZYMATIC PROPERTIES” (BIOPHARMA TRANSLATIONSINSTITUT DESSAU FORSCHUNGS GMBH, priority 2018, published 2022).

Tests used:
H-RHAK-OH = target: T1, H-RHAK-OH
T1 chain: RHAK

[1] = tested on: Bz PGGXaaXaaXaaHAG-OH / H-XaaXaaXaaAK(DNP)-OH (recognition sequences YRRH, YMKH, RMKH); test: Time course of transamidation by A2C8_H39Y/H59Y/E60K/K189D and wild-type trypsin (FIG. 5); type: biochemical; conditions: recognition sequences YRRH, YMKH and RMKH; 10 μM variant or 2.5 nM anionic rat trypsin II
Protocol: FIG. 5: Time course of the product formation for a transamidation reaction catalyzed by the variant A2C8_H39Y/H59Y/E60K/K189D as well as the wild-type Trypsin in correlation to various peptide substrates. Reaction conditions: 100 μM acyl donor (Bz PGGXaaXaaXaaHAG-OH), 200 μM acyl acceptor (H-XaaXaaXaaAK(DNP)-OH), 10 μM trypsin variant A2C8_H39Y/H59Y/E60K/K189D or 2.5 nM anionic rat trypsin II, 100 mM HEPES/NaOH pH 7.8, 0.1 mM ZnCl2, 100 mM NaCl, 10 mM CaCl2, T=30° C. UPLC analysis: Waters Acquity Ultra Performance LC, C18-column, gradient 5-60% acetonitrile, 5 min, detection at 360 nm.
The three substrates with the highest apparent turnover rate for the aminolysis reaction were then used for investigating the synthesis behavior of variant A2C8_H39Y/H59Y/E60K/K189D. In FIG. 5 the time course of product formation for a transamidation reaction catalyzed by variant A2C8_H39Y/H59Y/E60K/K189D with various peptide substrates is illustrated.

[2] = tested on: Bz-AAYRHAAG-OH (acyl donor) / H-RHAK-OH (acyl acceptor); test: Model transamidation reaction at low substrate concentration, Trypsiligase I, 2G10, 1C11, hybrid (Example 2); type: biochemical; conditions: for product yield (%): 15 μM Bz-AAYRHAAG-OH, 30 μM H-RHAK-OH, 0.5-2.1 μM trypsin variant, 0.1 mM ZnCl2, pH 7.8, 30° C.; for kcat, AL^app (mkat/mol) / kcat, AL^app/kcat, HL^app / kcat, HL^app (mkat/mol): 15 μM acyl donor, 30 μM acyl acceptor, 0.1 mM ZnCl2
Protocol: FIG. 1: Time course of product formation for a transamidation reaction catalyzed by Trypsiligase I as well as the improved variants 2G10, 1C11 and the hybrid variant. Reaction conditions: 15 μM Bz-[…]-OH (acyl donor), 30 μM H-RHAK-OH (acyl acceptor), 0.5-2.1 μM trypsin variant, 100 mM HEPES/NaOH pH 7.8, 0.1 mM ZnCl2, 100 mM NaCl, 10 mM CaCl2, T=30° C. UPLC analysis: Waters Acquity Ultra Performance LC, C18-column, gradient 5-40% acetonitrile, 4 min, detection at 254 nm.
The measurements of the product yield and the apparent tumover rates for aminolysis (kcat,AL^app) and hydrolysis (kcat,HL^app) were performed by a model transamidation reaction with the following conditions: 15 μM Bz-[…]-OH (acyl donor), 30 μM H-RHAK-OH (acyl acceptor), 0.5-2.1 μM trypsin variant, 100 mM HEPES/NaOH pH 7.8, 0.1 mM ZnCl2, 100 mM NaCl, 10 mM CaCl2, T=30° C.

[3] = tested on: Bz-AAYRHAAG-OH (acyl donor) / H-RHAK-OH (acyl acceptor); test: Model transamidation reaction, Trypsiligase I and improved variants (Example 1); type: biochemical; conditions: for kcat, HL^app (mkat/mol) / kcat,AL^app, apparent turnover rate for aminolysis (head is formula image MATH:00001) / product yield (%): 250 μM Bz-AAYRHAAG-OH, 500 μM H-RHAK-OH, 0.1 mM ZnCl2, pH 7.8, 30° C.; for product yield (%): 5-10 μM trypsin variant; for kcat, AL^app/kcat, HL^app: 250 μM acyl donor, 500 μM acyl acceptor, 0.1 mM ZnCl2; for Km: constant acyl donor concentration, varying acyl acceptor concentrations
Protocol: Peptide and reaction analytics were performed using a Waters ACQUITY UPLC System equipped with an RP-C18 column (ACQUITY UPLC BEH 130, C18, 1.7 μm, 2.1×100 mm) at flow rates of 0.5 ml/min. The used mobile phases are: water with 0.05% TFA (A) and acetonitrile with 0.05% TFA (B), respectively. For analysis two methods were applied: Method I: linear gradient of 5-40% B in 5 min, detection at 254 nm.
Quantities of product and educt were calculated from the integrated peak areas.
The measurements of the product yield and the apparent tumover rates for aminolysis (kcat,AL^app) and hydrolysis (kcat,HL^app) were performed by a model transamidation reaction with the following conditions: 250 μM Bz-[…]-OH (acyl donor), 500 μM H-RHAK-OH (acyl acceptor), 5-10 μM trypsin variant, 100 mM HEPES/NaOH pH 7.8, 0.1 mM ZnCl2, 100 mM NaCl, 10 mM CaCl2, T=30° C. KM values for the acyl acceptor were determined by the measurements of apparent turnover rates for aminolysis at constant acyl donor concentration and varying acyl acceptor concentrations.

H-RAHAK(DNP)-OH = target: T2, H-RAHAK(DNP)-OH
T2 chain: RAHAK

B1: Trypsiligase I (trypsin variant K60E/N143H/E151H/D189K) (protein)
chain: IVGGYTCQENSVPYQVSLNSGYHFCGGSLINDQWVVSAAHCYESRIQVRLGEHNINVLEGNEQFVNAAKIIKHPNFDRKTLNNDIMLIKLSSPVKLNARVATVALPSSCAPAGTQCLISGWGHTLSSGVNHPDLLQCLDAPLLPQADCEASYPGKITDNMVCVGFLEGGKKSCQGDSGGPVVCNGELQGIVSWGYGCALPDNPGVYTKVCNYVDWIQDTIAAN
**Q.** B1 was tested. Which KM, acyl acceptor (µM); transamidation with Bz-AAYRHAAG-OH as acyl donor, 0.1 mM ZnCl2 (H-RHAK-OH) did it give?
**A.** 222 µM

B2: wild-type trypsin: mature anionic rat trypsin II from Rattus norvegicus, SEQ ID NO: 1 (protein)
chain: IVGGYTCQENSVPYQVSLNSGYHFCGGSLINDQWVVSAAHCYKSRIQVRLGEHNINVLEGNEQFVNAAKIIKHPNFDRKTLNNDIMLIKLSSPVKLNARVATVALPSSCAPAGTQCLISGWGNTLSSGVNEPDLLQCLDAPLLPQADCEASYPGKITDNMVCVGFLEGGKDSCQGDSGGPVVCNGELQGIVSWGYGCALPDNPGVYTKVCNYVDWIQDTIAAN
modifications: Rat anionic trypsin II
**Q.** B2 was tested. Which “product formation” value [1] did it give?
**A.** Nearly no product formation

B3: Trypsiligase I variant 1C11 (protein)
chain: IVGGYTCQENSVPYQVSLNSGYHFCGGSLINDQWVVSAAHCYESRIQVRLGEHNINVLEGNEQFVNAAKIIKHPNFDVKTFNNDIMLIKLSSPVKLNARVATVALPSSCAPAGTQCLISGWGHTLSSGVNHPDLLQCLDAPLLPQADCEASYPGKITDNMVCVGFLEGGKKSCQGDSGGPVVCNGELQGIVGWGYSCGLPDNPGVYTKVCNYVDWIQDTIAAN
**Q.** For B3, which “product yield (%)” value [2] is on record?
**A.** 53.9%

**Q.** And the “kcat, AL^app (mkat/mol)” value [2]?
**A.** 6.24 mkat/mol

**Q.** What about the “kcat, AL^app/kcat, HL^app” value [2] of the same molecule?
**A.** 6.4

**Q.** What about the “kcat, HL^app (mkat/mol)” value [2] of the same molecule?
**A.** 0.97 mkat/mol

**Q.** And the “affinity for the nucleophilic substrate compared to Trypsiligase I” value [3]?
**A.** An improved affinity for the nucleophile could not be shown

**Q.** And the “kcat, HL^app (mkat/mol)” value [3]?
**A.** 0.3 mkat/mol

**Q.** What about the “kcat,AL^app, apparent turnover rate for aminolysis (head is formula image MATH:00001)” value [3] of the same molecule?
**A.** 16.0

**Q.** What about the “product yield (%)” value [3] of the same molecule?
**A.** 60.9%

**Q.** What about the “kcat, AL^app/kcat, HL^app” value [3] of the same molecule?
**A.** 57.0

**Q.** What about the Km [3] of the same molecule?
**A.** > 5000 µM

**Q.** And the “aminolysis activity lowered by factor” value ([3]; versus Trypsiligase I)?
**A.** 3

**Q.** And the “increase for the ratio of aminolysis to hydrolysis activity (factor)” value ([3]; versus Trypsiligase I)?
**A.** 13

**Q.** What about the KM, acyl acceptor (µM); transamidation with Bz-AAYRHAAG-OH as acyl donor, 0.1 mM ZnCl2 (H-RHAK-OH) of the same molecule?
**A.** > 5000 µM

**Q.** What about the “enzyme kinetic analyses (worded result)” value (H-RHAK-OH) of the same molecule?
**A.** An improved affinity for the nucleophile could not be shown for this variant.

B4: Trypsiligase I variant 2G10 (protein)
chain: IVGGYTCQENSVPYQVSLNSGYPFCGGSLINDQWVVSSAHCYESRIQVRLGEHNINVLEGNEQFVNAAKIIKHPNFDRDTFNNDIMLIKLSSPVKLNARVATVALPSSCAPAGTQCLISGWGHTLSSGVNHPDLLQCLDAPLLPQADCEASYPGKITDNMVCVGFLEGGKKSCEGDSGGPVVCNGELQGIVSWGYGCALPDNPGVYTKVCNYVDWIQDTIAAN
**Q.** B4 was tested. Which “product yield (%)” value [2] did it give?
**A.** 39.6%

**Q.** And the “kcat, AL^app (mkat/mol)” value [2]?
**A.** 16.39 mkat/mol

**Q.** What about the “kcat, AL^app/kcat, HL^app” value [2] of the same molecule?
**A.** 3.3

**Q.** What about the “kcat, HL^app (mkat/mol)” value [2] of the same molecule?
**A.** 5.03 mkat/mol

**Q.** What about the “affinity for the nucleophilic substrate compared to Trypsiligase I” value [3] of the same molecule?
**A.** strongly increased affinity for the nucleophilic RH substrate

**Q.** And the “kcat, HL^app (mkat/mol)” value [3]?
**A.** 2.5 mkat/mol

**Q.** What about the “kcat,AL^app, apparent turnover rate for aminolysis (head is formula image MATH:00001)” value [3] of the same molecule?
**A.** 65.1

**Q.** What about the “product yield (%)” value [3] of the same molecule?
**A.** 59.3%

**Q.** And the “kcat, AL^app/kcat, HL^app” value [3]?
**A.** 26.0

**Q.** What about the Km [3] of the same molecule?
**A.** 23 µM

**Q.** What about the “increase for the ratio of aminolysis to hydrolysis activity (factor)” value ([3]; versus Trypsiligase I) of the same molecule?
**A.** 6

**Q.** What about the KM, acyl acceptor (µM); transamidation with Bz-AAYRHAAG-OH as acyl donor, 0.1 mM ZnCl2 (H-RHAK-OH) of the same molecule?
**A.** 23 µM

**Q.** And the “enzyme kinetic analyses (worded result)” value (H-RHAK-OH)?
**A.** shows a strongly increased affinity for the nucleophilic RH substrate compared to the initial enzyme Trypsiligase I

B5: Trypsiligase II variant A2C8 (protein)
chain: IVGGYTCQENSVPYQVSLNSGHFFCGGSLINDQWVVSAAHCHESRIQVRLGEHNINVLEGNEQFVNAAKIIKHPNFDEDTFNNDIMLIKLSSPVKLNARVATVALPSSCAPAGTQCLISGWGETLSSGVNYPDLLQCLDAPLLPQADCEASYPGKITDNMVCVGFLEGGKKVCAGDSGGPVVCNGELQGIVGWGYQCTLPDNPGVYTKVCNYVDWIQDTIAAN
**Q.** How did the KM, acyl acceptor (µM); zinc ions (100 µM): no; transamidation with 250 µM Bz-PGGYRAHAG-OH as acyl donor (H-RAHAK(DNP)-OH) turn out when B5 was run?
**A.** 17.6 µM

**Q.** And the “fold improvement of KM of the nucleophilic peptide against Trypsiligase II in the absence of zinc ions” value (H-RAHAK(DNP)-OH)?
**A.** by a factor of 8 and 92 in the presence or absence of zinc ions, respectively

**Q.** And the “fold improvement of KM of the nucleophilic peptide against Trypsiligase II in the presence of zinc ions” value (H-RAHAK(DNP)-OH)?
**A.** by a factor of 8 and 92 in the presence or absence of zinc ions, respectively
